Literature values in paper PMC7830187.

Target: synthetic peptide

- Kd: 50 µM
Substance: intersectin-1 SH3 (from UniProt Q15811)
